Molecular target: T1, mEGFP-SRSF2, Q01130
T1 chain: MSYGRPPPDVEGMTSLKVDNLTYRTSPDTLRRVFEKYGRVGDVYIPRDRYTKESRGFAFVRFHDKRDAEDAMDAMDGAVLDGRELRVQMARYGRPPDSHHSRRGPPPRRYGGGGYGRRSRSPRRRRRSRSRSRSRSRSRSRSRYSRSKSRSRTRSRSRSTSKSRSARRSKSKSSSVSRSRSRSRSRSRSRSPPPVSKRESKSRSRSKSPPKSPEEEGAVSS
Experiment: SEC-MALS; purified protein, static light scattering after the molecular sieve; before addition of PEG8000
Details: remark: other sources report otherwise

stoichiometry N: 5000
B1: mEGFP-SRSF2, Q01130 1-221 (natural protein)
chain: MSYGRPPPDVEGMTSLKVDNLTYRTSPDTLRRVFEKYGRVGDVYIPRDRYTKESRGFAFVRFHDKRDAEDAMDAMDGAVLDGRELRVQMARYGRPPDSHHSRRGPPPRRYGGGGYGRRSRSPRRRRRSRSRSRSRSRSRSRSRYSRSKSRSRTRSRSRSTSKSRSARRSKSKSSSVSRSRSRSRSRSRSRSPPPVSKRESKSRSRSKSPPKSPEEEGAVSS

From article PMC10258192
